Source: patent publication US9458465B2, “Compositions and methods to modulate cell membrane resealing” (RUTGERS, THE STATE UNIVERSITY OF NEW JERSEY, priority 2007, dated 2016)

How the values were obtained:
[1] = tested on: FDB muscle fibers from mg53−/− mice; experiment: FM1-43 dye entry after UV-laser damage, mg53−/− FDB muscle fibers; type: cell-based; conditions: mg53−/− fibers; +Zn-HPT
Description: (§1) FIG. 20. Protective effect of zinc on membrane repair is lost in mg53−/− skeletal muscle. (a) individual flexor digitorum brevis (FDB) muscle fibers were isolated from wild type (WT) mice (3-6 months). A strong UV laser was applied to the FDB fiber that caused local damage to the muscle (arrow). Entry of FM1-43 fluorescent dye (2.5 μM) was used as an indicator for the measurement of membrane repair capacity. The images were taken 200 s following UV irradiation (control). […] (d) Schematic diagram of zinc-binding motifs in MG53. The amino-terminus of MG53 contains two putative zinc-binding motifs: one located at the RING motif (a.a. 1-56, human cDNA), and the other located at the B-box motif (a.a. 86-117, human cDNA). The specific amino acids that participate in zinc-binding are indicated.
as §1, with “Protective” for “FIG. 20. Protective”, “To access membrane repair capacity,” for “(a)”, “months) (FIG. 20a).” for “months).”, “Summary data for panel a and b (FIG. 20c). […]” for “(d)”, “indicated (FIG. 20d).” for “indicated.”

[2] = tested on: C2C12 cells expressing GFP-MG53; experiment: GFP-MG53 redistribution on agent application without injury; type: cell-based, murine; conditions: 20 μM Zn-HPT, prolonged incubation (15 min)
From the text: Extracellular zinc entry is essential for MG53-mediated vesicle translocation to acute membrane injury sites. To follow the process of intracellular vesicle translocation associated with repair of acute membrane damage, GFP-MG53 fusion protein was expressed in C2C12 myoblast cells (FIG. 21a). […] Acute injury of the cell generated by penetration of a microelectrode caused rapid translocation of MG53-containing vesicles at the injury site (arrow, right panel). […] C2C12 cells transiently transfected with GFP-MG53 was incubated with 20 μM Zn-HPT. Under control condition (0 min), GFP-MG53 was distributed in the cytosol, as well as intracellular vesicles (FIG. 21d).
An active ingredient from notoginseng can facilitate MG53-membrane repair function. GFP-MG53 was expressed in C2C12 cells and then these cells were perfused with an alcohol extract from notoginseng. […] Based on this observation, we reasoned that a therapeutic approach with the combination of MG53 and notoginseng may provide additive protective effects in preventing both inflammation and membrane damage to the cells, and thus can improve the function of MG53 when applied in tandem with recombinant MG53 protein or when applied alone as a supplement of pharmaceutical.

[3] = tested on: FDB muscle fibers from wild type (WT) mice; experiment: FM1-43 dye entry after UV-laser damage, wild type FDB muscle fibers; type: cell-based; conditions: WT fibers; 2 μM zinc-ionophore
Description: as §1
as §1, with “Protective” for “FIG. 20. Protective”, “To access membrane repair capacity,” for “(a)”, “months) (FIG. 20a).” for “months).”, “Summary data for panel a and b (FIG. 20c). […]” for “(d)”, “indicated (FIG. 20d).” for “indicated.”

[4] = tested on: E3-ligase activity of MG53; experiment: In vitro ubiquitination with ATP, ubiquitin, E1 and E2 enzymes; type: biochemical; conditions: Ubc4 or UbcH5 as E2
Description: To test whether MG53 can catalyze ubiquitination in vitro, we prepared a recombinant maltose-binding protein (MBP) fusion protein for MG53. MBP-MG53 was incubated with ATP, ubiquitin, E1 and E2 enzymes, and subjected to immunoblotting with the anti-MBP antibody. […] The exclusion of either ubiquitin, E1 or E2 (UbcH5) from the assay abolished the appearance of such ladders, confirming that the modification acquired by MBP-MG53 was indeed auto-ubiquitination. […] Thus, MG53 is a Ring-finger type ubiquitin ligase that couples with Ubc4/5 sub-family of E2 enzymes.

[5] = tested on: mg53−/− myotubes; experiment: Membrane repair in transfected mg53−/− myotubes; type: cell-based, mice; conditions: primary cultured mg53−/− myotubes
From the text: The entry of FM4-64, a red-shifted variant of FM1-43, was used as an index of membrane repair capacity in mg53−/− myotubes transfected with GFP-MG53 and GFP-C242A. Following UV-bleaching of the green fluorescence, rapid translocation of GFP-MG53 took place at the injury site, whereas GFP-C242A remained static due to its defective oligomerization properties (FIG. 16E, 17A).
Similar defects with GFP-C29L were also observed in C2C12 myotubes (FIG. 18e, middle).

[6] = tested on: C2C12 cells expressing GFP-MG53; experiment: Repair of acute membrane damage: translocation to microelectrode injury site; type: cell-based, murine; conditions: C2C12 cells
Description: To follow the process of intracellular vesicle translocation associated with repair of acute membrane damage, GFP-MG53 fusion protein was expressed in C2C12 myoblast cells (FIG. 21a). […]
Cell culture—The C2C12 murine myoblast cell line used for all studies was purchased from the American Type Culture Collection (Manassas, Va.). Cells were grown in a humidified environment at 37° C. and 5% CO2 in DMEM medium for C2C12 or Ham's F12 medium for CHO cells supplemented with 10% fetal bovine serum, 100 units/ml penicillin and 100 ug/ml streptomycin. In order to induce myotube differentiation, C2C12 myoblasts were grown to confluence and the medium was switched to DMEM containing 2% horse serum, penicillin (100 U/ml), streptomycin (100 μg/ml). For transient transfections, C2C12 myoblasts or CHO cells were plated at 70% confluence in glass-bottom dishes. After 24 hours, cells were transfected with plasmids described above using GeneJammer reagent (Stratagene). Cells were visualized by live cell confocal imaging at 24-48 hours after transfection or at times indicated for individual experiments. In some experiments, C2C12 myoblasts were allowed to differentiate into myotubes for the indicated time before observation.
Live cell imaging—To monitor intracellular trafficking of GFP-MG53 either CHO or C2C12 cells were cultured in glass-bottom dishes (Bioptechs Inc.) and transfected with the plasmids described above. Fluorescence images (512×512) were captured at 3.18 s/frame using a BioRad 2100 Radiance laser scanning confocal microscope with a 63×1.3NA oil immersion objective.

[7] = tested on: Hela cervical epithelial cells; experiment: Resealing after glass bead damage, Hela; type: cell-based; conditions: glass beads
From the text: Effects of MG53 are specific to the function of the protein.

[8] = tested on: HEPM cells; experiment: LDH release after LPS treatment; type: cell-based, human; conditions: LPS 1 mg/mL, 24 hours, co-incubation
From the text: Lipopolysaccarides can induce membrane damage in HEPM cells that can be prevented by exposure to MG53.

[9] = tested on: Human IB3 airway epithelial cells; experiment: LDH release after glass bead damage, IB3; type: cell-based; conditions: glass beads; external protein
Description: External MG53 can reseal to membrane damage in airway epithelial cells. Human IB3 airway epithelial cells were treated with external recombinant human MG53 or vehicle control and then exposed to mechanical membrane damage by glass beads (FIG. 48).

[10] = PIP2-Strip lipid dot blot; type: binding; conditions: 1 μg/ml
[11] = tested on: HEK293 cells; experiment: LDH release after glass microbead damage, HEK293; type: cell-based, human; conditions: glass microbeads
Description: Recombinant MG53 can protect kidney cells from mechanical cell membrane damage. HEK293 cells (8×10^4) were treated with glass microbeads to induce mechanical damage (FIG. 37). Different does of recombinant human MG53 or vehicle control was applied to the samples when glass beads were added to the media. Cells were rotated on an orbital shaker and then the supernatant was analyzed for LDH levels.
(§2) Externally applied recombinant MG53 requires phosphatidylserine (PS) binding to reseal damaged membranes. HEK293 cells were treated with recombinant human MG53 or vehicle and them damaged by shaking in the presence of glass microbeads (black bars) (FIG. 40). Membrane damage is measured by LDH release from cells that is recorded by colormetric assay recorded at 488 nm. […] Thus, MG53 must be able to bind exposed PS on damaged cells in order to facilitate membrane repair. * p<0.05
as §2, with “HEK293” for “Externally applied recombinant MG53 requires phosphatidylserine (PS) binding to reseal damaged membranes. HEK293”, “41).” for “40).”

[12] = tested on: HEPM cells; experiment: LDH release after electroporation, HEPM; type: cell-based, human; conditions: 10 ug/mL, extracellular; various field strengths
Description: (§3) Recombinant MG53 can protect gum lining cells from cell membrane damage. (a) HEPM cells (5×10^4) were treated with 10 ug/mL recombinant human MG53 or vehicle control and then electroporated at various field strengths (FIG. 36). […] (b) MG53 or a vehicle control was added to recombinant LDH to generate standard curves for LDH activity.

[13] = tested on: HEK293 cells; experiment: LDH release after electroporation, HEK293; type: cell-based, human; conditions: 10 ug/mL, extracellular; various field strengths
Description: Genetic overexpression of MG53 can prevent membrane damage. Human embryonic kidney (HEK293) cells were transfected with RFP-MG53 or RFP and then electroporated with fields of varying strength (FIG. 32). The amount of membrane damage was measured by assessing the amount of lactate dehydrogenase (LDH) that leaks into the extracellular media out of holes in the plasma membrane produced by electroporation. The more damage that occurs to the membrane, the higher the reading on the LDH assay will be. […] Thus, expression of exogenous MG53 in non-muscle cells can increase the capacity for cell membrane repair in such non-muscle cells.
as §3, with “kidney” for “gum lining”, “HEK293” for “HEPM”, “(8×10^4)” for “(5×10^4)”, “35).” for “36).”

[O-]n1ccccc1=S.[O-]n1ccccc1=S.[Zn+2] [Zn-HPT, Zn-1-hydroxypyridine-2-thine]
membrane repair capacity (FM1-43 dye entry) [1]: did not produce protective effect on membrane repair
redistribution of GFP-MG53 [2]: caused redistribution of GFP-MG53 toward the cell surface membrane and the intracellular membrane compartments
membrane repair capacity (FM1-43 dye entry) [3]: increased membrane repair capacity

B1: C29L: MG53 mutant, Cys-29 in the Ring-finger motif replaced with leucine; GFP fusion, MBP fusion in b268 (protein)
chain: MSAAPGLLRQELSCPLCLQLFDAPVTAELGHSFCRACLIRVAGEPAADGTVACPCCQAPTRPQALSTNLQLSRLVEGLAQVPQGHCEEHLDPLSIYCEQDRTLVCGVCASLGSHRGHRLLPAAEAQARLKTQLPQQKMQLQEACMRKEKTVAVLEHQLVEVEETVRQFRGAVGEQLGKMRMFLAALESSLDREAERVRGDAGVALRRELSSLNSYLEQLRQMEKVLEEVADKPQTEFLMKFCLVTSRLQKILSESPPPARLDIQLPVISDDFKFQVWKKMFRALMPALEELTFDPSSAHPSLVVSSSGRRVECSDQKAPPAGEDTRQFDKAVAVVAQQLLSQGEHYWEVEVGDKPRWALGVMAADASRRGRLHAVPSQGLWLLGLRDGKILEAHVEAKEPRALRTPERPPARIGLYLSFADGVLAFYDASNPDVLTPIFSFHERLPGPVYPIFDVCWHDKGKNAQPLLLVGPEQEQA
modifications: left off: large carriers
notes: MG53 mutant, Cys-29 in the Ring-finger motif replaced with leucine; GFP fusion, MBP fusion
ubiquitination / intrinsic E3-ligase activity [4]: significantly reduced
translocation to the plasma membrane following injury [5]: remained generally unresponsive to acute cell injury
Membrane Repair (+Zn-HPT) ([6]; 2 μM Zn-HPT, listed as GFP-C29L): partially rescue the movement
translocation to injury site and membrane repair function of GFP fusion protein ([6]; acute membrane damage): immobile and ineffective in repair of membrane injury
Membrane Repair (−Zn-HPT) ([6]; extracellular solution with nominal free zinc, listed as GFP-C29L): defective movement toward the acute injury site

B2: recombinant human MG53: recombinant mitsugumin53 protein, muscle-specific TRIM family protein, applied extracellularly (protein)
chain: MSAAPGLLHQELSCPLCLQLFDAPVTAECGHSFCRACLGRVAGEPAADGTVLCPCCQAPTRPQALSTNLQLARLVEGLAQVPQGHCEEHLDPLSIYCEQDRALVCGVCASLGSHRGHRLLPAAEAHARLKTQLPQQKLQLQEACMRKEKSVAVLEHQLVEVEETVRQFRGAVGEQLGKMRVFLAALEGSLDCEAERVRGEAGVALRRELGSLNSYLEQLRQMEKVLEEVADKPQTEFLMKYCLVTSRLQKILAESPPPARLDIQLPIISDDFKFQVWRKMFRALMPALEELTFDPSSAHPSLVVSSSGRRVECSEQKAPPAGEDPRQFDKAVAVVAHQQLSEGEHYWEVDVGDKPRWALGVIAAEAPRRGRLHAVPSQGLWLLGLREGKILEAHVEAKEPRALRSPERRPTRIGLYLSFGDGVLSFYDASDADALVPLFAFHERLPRPVYPFFDVCWHDKGKNAQPLLLVGPEGAEA
membrane resealing [7]: effective at resealing damage
membrane resealing ([7]; recombinant protein boiled): can no longer facilitate membrane resealing
prevention of LPS induced damage (LDH release) [8]: can prevent damage to HEPM cells produced by LPS
cell membrane damage (LDH release) [9]: could prevent cell membrane damage due to mechanical damage
lipid binding [10]: specifically binds phosphatidylserine (PS) and not other membrane lipids
saturating dose [11]: ~10 µg/mL
mechanical membrane damage (LDH levels) ([11]; different doses): can prevent mechanical membrane damage
membrane damage (LDH) from electroporation [12]: can prevent damage from electroporation
membrane damage (LDH) from electroporation [13]: can prevent damage from electroporation
